Assay results published in patent publication US20090191187A1 (published 2009).

Assays:
[1] = molecular target: T1, recombinant soluble human type 1 IL-1 receptor (extracellular domain, glycosylated) (human, UniProt P14778 21-333, N-glycosylated (from SF9 insect cells); biotinylated in the ELISA of Examples 2 and 4c); assay: ELISA on biotinylated human IL-1R on streptavidin plates
T1 construct: also called hIL-1R; rshIL-1R
T1 sequence: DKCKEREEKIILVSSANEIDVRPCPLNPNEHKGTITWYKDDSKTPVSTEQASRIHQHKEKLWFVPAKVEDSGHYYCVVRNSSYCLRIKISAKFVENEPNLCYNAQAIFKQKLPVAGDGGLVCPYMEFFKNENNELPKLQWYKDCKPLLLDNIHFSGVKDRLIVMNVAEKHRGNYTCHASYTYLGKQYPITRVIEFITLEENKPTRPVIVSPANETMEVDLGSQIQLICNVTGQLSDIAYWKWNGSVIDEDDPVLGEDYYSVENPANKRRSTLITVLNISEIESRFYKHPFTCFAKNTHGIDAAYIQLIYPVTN
Procedure: The relative immunactivity of the antibodies as compared to 2D8 antibody was determined by ELISA. A soluble biotinylated human IL-1R was coated at room temperature for one hour to 96-well-plates (precoated with streptavidin). After blocking with BSA the antibody was diluted and added to the wells and incubated at room temperature for two hours. The plates were washed three times and incubated with horse-radish-peroxidase (POD)-conjugated rabbit-anti-rat-IgG at room temperature for one hour. After further washing the amount of bound antibody was determined by addition of TM-Blue® ([…]) and measurement of the absorbance at 370 nm.

[2] = molecular target: T2, human interleukin-1 receptor on cells (MRC-5 human embryonic lung fibroblasts; human blood cells) (human, UniProt P14778 18-569); assay: cell-based or functional assay
T2 sequence (looked up): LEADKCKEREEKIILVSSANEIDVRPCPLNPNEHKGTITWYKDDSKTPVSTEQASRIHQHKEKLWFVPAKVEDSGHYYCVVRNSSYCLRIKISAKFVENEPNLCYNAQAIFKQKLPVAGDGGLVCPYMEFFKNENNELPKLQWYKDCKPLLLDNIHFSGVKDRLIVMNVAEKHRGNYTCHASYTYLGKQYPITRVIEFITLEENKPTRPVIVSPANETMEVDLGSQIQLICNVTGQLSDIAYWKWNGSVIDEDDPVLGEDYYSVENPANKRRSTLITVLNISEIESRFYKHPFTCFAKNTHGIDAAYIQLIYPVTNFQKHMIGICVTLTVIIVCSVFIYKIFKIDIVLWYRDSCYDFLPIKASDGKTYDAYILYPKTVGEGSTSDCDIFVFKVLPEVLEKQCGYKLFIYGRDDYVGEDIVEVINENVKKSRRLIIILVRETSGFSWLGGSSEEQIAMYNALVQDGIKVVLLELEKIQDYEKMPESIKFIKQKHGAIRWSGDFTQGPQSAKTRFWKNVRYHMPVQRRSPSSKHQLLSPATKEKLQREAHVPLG

[3] = molecular target: T1, recombinant soluble human type 1 IL-1 …; assay: SPR competition: IL-1R (10 nM) preincubated with DEI5/8, injected over immobilized 2D8 (competitor); first assay: immobilized 2D8
Procedure: The protein-protein interaction of anti-IL-1R antibodies with IL-1R is analyzed by surface plasmon resonance using a Biacore 3000 System. Association rates are determined by an injection of two minutes duration; dissociation rates are measured by a washing step of three minutes duration. Negative control data are subtracted from original curves for correction of system intrinsic baseline drift and for noise signal reduction. Two assay formats with the antibody and IL-1R immobilized to the chip surface are used for this study.
a) Anti-IL-1R antibody 2D8 is covalently immobilized on the chip surface (CM5) by amine coupling. IL-1R is injected in a concentration of 10 nM under mass transfer conditions in order to determine the maximum signal which serves as a reference in the inhibition studies. Inhibition of IL-1R (10 nM) binding is measured by preincubation (in HBS—P buffer for at least 20 min at room temperature) of IL-1R with increasing concentrations (0.78-100 nM) of IL-1R antagonist, IL-1beta or DEI5/8. Subsequently, the samples are injected into the flow cells and interaction with immobilized 2D8 antibody is determined.

B1: DEI5/8 (antibody, human IgG4, kappa, V domains shown)
VH: QLQLQESGPGLVKPSQTLSLTCTVSGLSLTSNSITWIRQPPGKGPEWMGMIWSNGDTDYSTSLKSRLTISKDTSKSQVVLTMTNMDPVDTATYYCARYNYYFDYWGQGTLVTVSS
VL: DIVLTQSPATLSLSPGERATLSCKASQNVDNRGVSYVHWYQQKPGQAPKLLIYKGSNLAFGVPSRFSGSGSGTDFTLTISSLQPEDFATYFCQQSKGHPDTFGAGTKLELKR
notes: also called combination of HURDIVHv5 and HURDIVKv8
- ELISA (absorbance at 370 nm in relation to 2D8), 1st experiment [1]: 1.4 relative to 2D8
- ELISA (absorbance at 370 nm in relation to 2D8), 2nd experiment [1]: 1.9 relative to 2D8
- ELISA (absorbance at 370 nm in relation to 2D8), mean [1]: 1.7 relative to 2D8
- Bioassay (IC50 in relation to 2D8), 1st experiment [2]: 1.7 relative to 2D8
- Bioassay (IC50 in relation to 2D8), 2nd experiment [2]: 2.2 relative to 2D8
- Bioassay (IC50 in relation to 2D8), Mean [2]: 2 relative to 2D8
- IC50 [3]: 2 nM
